Assay results published in the supplement of paper PMC9233669.
This sample holds only a part of the variants without activity.

Legend:
biotinyl-Phe-oxazolone = experiment: self-aminoacylation, catalytic enhancement (BFO) (fold over background); higher = more active; k-Seq, kA / k0A0; sequences stand for … in GGGAAUGGAUCCACAUCUACGAAUUC…UUCACUGCAGACUUGACGAAGCUG
Summary of the method: (§1)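 Working in 50 μL HEPES/NaCl/KCl/MgCl2/CaCl2 buffer with 5% acetonitrile at pH 6.9–7.0, mutagenized RNA pools (0.43 μM; 21-nt variable region) were reacted with 2–1250 μM of each biotinyl-aminoacyl-oxazolone for 90 minutes at room temperature. Streptavidin capture followed, with quantification by triplicate qPCR and Illumina sequencing. Catalytic enhancement is reported as median kA over the uncatalyzed rate, the low-activity peak of a bimodal Gaussian fit to the data.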

biotinyl-Trp-oxazolone = experiment: self-aminoacylation, catalytic enhancement (BWO) (fold over background); higher = more active; k-Seq, kA / k0A0; sequences stand for … in GGGAAUGGAUCCACAUCUACGAAUUC…UUCACUGCAGACUUGACGAAGCUG
Summary of the method: as §1

biotinyl-Leu-oxazolone = experiment: self-aminoacylation, catalytic enhancement (BLO) (fold over background); higher = more active; k-Seq, kA / k0A0; sequences stand for … in GGGAAUGGAUCCACAUCUACGAAUUC…UUCACUGCAGACUUGACGAAGCUG
Summary of the method: as §1

biotinyl-Ile-oxazolone = experiment: self-aminoacylation, catalytic enhancement (BIO) (fold over background); higher = more active; k-Seq, kA / k0A0; sequences stand for … in GGGAAUGGAUCCACAUCUACGAAUUC…UUCACUGCAGACUUGACGAAGCUG
Summary of the method: as §1

biotinyl-Met-oxazolone = experiment: self-aminoacylation, catalytic enhancement (BMO) (fold over background); higher = more active; k-Seq, kA / k0A0; sequences stand for … in GGGAAUGGAUCCACAUCUACGAAUUC…UUCACUGCAGACUUGACGAAGCUG
Summary of the method: as §1

biotinyl-Val-oxazolone = experiment: self-aminoacylation, catalytic enhancement (BVO) (fold over background); higher = more active; k-Seq, kA / k0A0; sequences stand for … in GGGAAUGGAUCCACAUCUACGAAUUC…UUCACUGCAGACUUGACGAAGCUG
Summary of the method: as §1

| Sequence | self-aminoacylation (biotinyl-Phe-oxazolone) | self-aminoacylation (biotinyl-Trp-oxazolone) | self-aminoacylation (biotinyl-Leu-oxazolone) | self-aminoacylation (biotinyl-Ile-oxazolone) | self-aminoacylation (biotinyl-Met-oxazolone) | self-aminoacylation (biotinyl-Val-oxazolone) |
| --- | --- | --- | --- | --- | --- | --- |
| AACUUUGCUAAUAGUCGCAAC [Fam3.1 aminoacylation ribozyme variant] | 4.1 | 2.59 | 2.16 | 2.22 | – | – |
| AAGCUUGCUAACAGUCGCAAG [Fam3.1 aminoacylation ribozyme variant] | 3.33 | – | 2.5 | – | 2.4 | – |
| AAGUUGGCUAAAAGUCGCAAG [Fam3.1 aminoacylation ribozyme variant] | 3.1 | – | – | 2.01 | – | – |
| AAGUUUUCUAACAGUCGCAAG [Fam3.1 aminoacylation ribozyme variant] | 3.07 | – | – | 2.04 | – | – |
| AAUUUUGCUAAUAGUCGCAUG [Fam3.1 aminoacylation ribozyme variant] | 3.03 | 3.4 | – | – | 2.28 | – |
| ACGUUUGCCAAUAGUCGCAAG [Fam3.1 aminoacylation ribozyme variant] | 6.32 | – | 2.16 | – | 2.04 | – |
| ACGUUUGCUAAUAGUCGCCAG [Fam3.1 aminoacylation ribozyme variant] | 2.03 | 2.59 | – | – | 2.26 | – |
| AGGUCUGCUAAUAGUCGCAAG [Fam3.1 aminoacylation ribozyme variant] | 37 | 9.95 | – | – | 2.08 | – |
| AUACACCUAGGUCAUCGGGCG [Fam2.2 aminoacylation ribozyme variant] | 11 | 2.86 | 2.58 | – | 2.8 | 2.18 |
| AUCACCCUGGUCAUCAAGUGA [Fam2.1 aminoacylation ribozyme variant] | 14.2 | 4.8 | 3.46 | – | 3.75 | 2.1 |
| AUGACCCUGGUCAUCAAGUGA [Fam2.1 aminoacylation ribozyme variant] | 2.74 | 2.06 | 2.28 | – | 2.4 | – |
| AUUAACCUAGAUCAUCGGGUG [Fam2.2 aminoacylation ribozyme variant] | 14.9 | 2.54 | 2.84 | – | 2.81 | – |
| AUUACCCUGCUCUUCGAGUGA [Fam2.1 aminoacylation ribozyme variant] | 2.38 | 2.72 | 2.36 | – | 2.02 | – |
| AUUACCCUGGGCAUCGAGUGU [Fam2.1 aminoacylation ribozyme variant] | 2.53 | 2.31 | – | – | 2.02 | – |
| AUUACCCUGGGGAUCGAGUGA [Fam2.1 aminoacylation ribozyme variant] | 14.1 | 3.94 | 3.34 | – | 2.55 | – |
| AUUACCCUGGUACUCGAGUGA [Fam2.1 aminoacylation ribozyme variant] | 10.3 | 3.35 | 2.66 | – | 2.66 | – |
| AUUACCCUGGUCAUCGAGAAA [Fam2.1 aminoacylation ribozyme variant] | 5.05 | 2.58 | 2.97 | – | 2.8 | – |
| AUUACCCUGGUCGUGGAGUGA [Fam2.1 aminoacylation ribozyme variant] | 12.3 | 2.5 | 2.42 | – | 2.19 | – |
| AUUACCGUGCUCAUCGAGUGA [Fam2.1 aminoacylation ribozyme variant] | 2.01 | 3.33 | 2.64 | – | 2.12 | – |
| AUUACGCUGGUCAUCAAGUGA [Fam2.1 aminoacylation ribozyme variant] | 2.38 | 3.76 | 2.55 | – | 2.63 | – |
| AUUACUCUGGUCAUCGAGGGA [Fam2.1 aminoacylation ribozyme variant] | – | 2.13 | – | – | 2.09 | – |
| AUUCAACUAGGUAAUCGGGUG [Fam2.2 aminoacylation ribozyme variant] | 19 | 2.81 | 3.41 | – | 2.72 | – |
| AUUCACAUAGGUCAUCGGGGG [Fam2.2 aminoacylation ribozyme variant] | – | 2.66 | – | – | 2.28 | – |
| AUUCACCAAGGUCAUAGGGUG [Fam2.2 aminoacylation ribozyme variant] | 9.85 | 2.2 | 4.37 | – | 2.48 | – |
| AUUCACCGAGGUCAUCGGGAG [Fam2.2 aminoacylation ribozyme variant] | 4.74 | – | – | – | 2.23 | – |
| AUUCACCUACGUCAACGGGUG [Fam2.2 aminoacylation ribozyme variant] | 9.97 | 2.84 | 3.09 | – | 2.35 | – |
| AUUCACCUACGUCAUCAGGUG [Fam2.2 aminoacylation ribozyme variant] | 9.1 | 2.08 | 2.86 | – | 2.73 | – |
| AUUCACCUACGUCAUCGGGGG [Fam2.2 aminoacylation ribozyme variant] | 6.05 | – | 2.68 | – | – | 2.01 |

| Sequence | self-aminoacylation (biotinyl-Phe-oxazolone) | self-aminoacylation (biotinyl-Trp-oxazolone) | self-aminoacylation (biotinyl-Leu-oxazolone) | self-aminoacylation (biotinyl-Ile-oxazolone) | self-aminoacylation (biotinyl-Met-oxazolone) | self-aminoacylation (biotinyl-Val-oxazolone) |
| --- | --- | --- | --- | --- | --- | --- |
| AUUCACCUAGAUCAUCGGGUA [Fam2.2 aminoacylation ribozyme variant] | 5.46 | – | – | – | 2.12 | – |
| AUUCACCUAGGCCAUCGGCUG [Fam2.2 aminoacylation ribozyme variant] | 10.5 | – | 2.03 | – | 2.27 | 2.59 |
| AUUCACCUAGGUAAUCUGGUG [Fam2.2 aminoacylation ribozyme variant] | 16.9 | 3.62 | 4.66 | – | 3.3 | – |
| AUUCACCUAGGUCAUCGGGAC [Fam2.2 aminoacylation ribozyme variant] | 2.12 | 2.55 | 3 | – | 2.56 | – |
| AUUCACCUAUGUCAUGGGGUG [Fam2.2 aminoacylation ribozyme variant] | 14.1 | 2.69 | 3.16 | – | 2.89 | 2.07 |
| AUUCACGUAGGUCAUCGGGUC [Fam2.2 aminoacylation ribozyme variant] | 9.36 | – | – | – | 2.19 | 2.28 |
| AUUCAGCUACGUCAUCGGGUG [Fam2.2 aminoacylation ribozyme variant] | 10.1 | 3.07 | 2.71 | – | – | 2.02 |
| CAACUUCAAACAAUCGGUCGG [Fam1A.1 aminoacylation ribozyme variant] | 87.2 | 32.4 | 2.79 | – | 2.1 | – |
| CCACAAUUCAAGCAAUCGGGC [Fam1B.1 aminoacylation ribozyme variant] | – | 2.04 | – | 2.22 | 2.14 | – |
| CCACAAUUCACGCAAUCGGUC [Fam1B.1 aminoacylation ribozyme variant] | – | – | – | – | – | 2.05 |
| CCACACGUCAAGCAAUCGCUC [Fam1B.1 aminoacylation ribozyme variant] | – | – | – | – | 2.64 | 2.54 |
| CCACACGUCAAGCAAUCGGUU [Fam1B.1 aminoacylation ribozyme variant] | – | – | – | – | – | 2.28 |
| CCACACUUCAAGCAAGCGGUG [Fam1B.1 aminoacylation ribozyme variant] | – | 2.4 | 3.19 | – | 2.45 | – |
| CCACACUUCAAGCAAUCGGCC [Fam1B.1 aminoacylation ribozyme variant] | 4.93 | 4.72 | – | – | – | 2.17 |
| CCACACUUCAAUCAAUCGGCC [Fam1B.1 aminoacylation ribozyme variant] | 2.71 | 2.62 | 2.16 | – | – | 2.11 |
| CCACUCUUCAAGCAAUCGGCC [Fam1B.1 aminoacylation ribozyme variant] | 4.1 | 4.14 | 2.23 | – | – | 2.16 |
| CCAGACUUCGAGCAAUCGGUC [Fam1B.1 aminoacylation ribozyme variant] | – | – | – | – | – | 2.09 |
| CCGCACUUCAAGCAAUCGGUU [Fam1B.1 aminoacylation ribozyme variant] | 13.9 | 14.4 | 2.4 | – | – | 2.45 |
| CCGCACUUCAAGCCAUCGGUC [Fam1B.1 aminoacylation ribozyme variant] | 2.13 | 2.01 | – | – | – | 2.26 |
| CUACUGCAAACAUUCGGUCUG [Fam1A.1 aminoacylation ribozyme variant] | 9.39 | – | – | 2.01 | – | – |
| CUGCUUCAAACAAUCGGUGUG [Fam1A.1 aminoacylation ribozyme variant] | 124 | 49.6 | 3.16 | – | 2.12 | – |
| CUGUUUCAAACAAUCGGUCUG [Fam1A.1 aminoacylation ribozyme variant] | 96.2 | 38.4 | 2.48 | – | – | – |
| CUUAGCCUGGUCAUCGAGUGA [Fam2.1 aminoacylation ribozyme variant] | 2.6 | 2.72 | 3.38 | – | 2.57 | – |
| CUUCACCUAGGUCAUCGGCUG [Fam2.2 aminoacylation ribozyme variant] | 9.39 | 2.25 | – | – | – | 2.27 |
| UAACUUCAAACAAUCGGUCUG [Fam1A.1 aminoacylation ribozyme variant] | 55.3 | 27.1 | 2.04 | – | – | – |
| UCACUUCAAACAAUCGGUCUG [Fam1A.1 aminoacylation ribozyme variant] | 70.7 | 35.1 | 2.11 | – | – | – |
| UUUCACCUAGGUCAUCGGGUC [Fam2.2 aminoacylation ribozyme variant] | 2.14 | – | – | – | – | 2.09 |
